In the data set the target is T1, MdMYB1 (Malus domestica? (apple), UniProt A0SQ37 1-243).
T1 sequence: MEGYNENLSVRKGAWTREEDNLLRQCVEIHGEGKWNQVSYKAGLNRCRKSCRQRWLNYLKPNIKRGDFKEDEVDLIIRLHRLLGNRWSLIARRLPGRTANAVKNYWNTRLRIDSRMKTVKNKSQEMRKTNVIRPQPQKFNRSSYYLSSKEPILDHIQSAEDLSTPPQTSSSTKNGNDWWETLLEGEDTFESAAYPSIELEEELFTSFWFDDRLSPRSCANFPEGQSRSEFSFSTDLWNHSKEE
As to the kind of experiment: EMSA; LightShift Chemiluminescent EMSA Kit (Thermo); buffer, salt, pH and temperature not stated. The note with it: protein: recombinant; tags: pET-32a fusion, His (Ni-agarose purified); blunt.

B1: MdGSTF6-probe (dsDNA)
DNA 1: ATATCTAGTTGTAATCAACTGTTATGGCATAAATTG
DNA 2: CAATTTATGCCATAACAGTTGATTACAACTAGATAT
On to B1, for which the binding result was “binds”.

For the origin of these results see paper PMC6395711, “MdGSTF6, activated by MdMYB1, plays an essential role in anthocyanin accumulation in apple”.
